Test results: publication PMC10371074, “Allosteric control of dynamin-related protein 1-catalyzed mitochondrial fission through a conserved disordered C-terminal Short Linear Motif” (Research Square, 2023)
Where “and” joins values, the source holds several entries; their conditions need not be identical. Equal values may be shown once.

B1: human Drp1 (isoform 3) ΔCT6, last six residues (whole CT-SLiM) removed (enzyme, UniProt O00429-4 1-693, looked up)
chain: MEALIPVINKLQDVFNTVGADIIQLPQIVVVGTQSSGKSSVLESLVGRDLLPRGTGIVTRRPLILQLVHVSQEDKRKTTGEENGVEAEEWGKFLHTKNKLYTDFDEIRQEIENETERISGNNKGVSPEPIHLKIFSPNVVNLTLVDLPGMTKVPVGDQPKDIELQIRELILRFISNPNSIILAVTAANTDMATSEALKISREVDPDGRRTLAVITKLDLMDAGTDAMDVLMGRVIPVKLGIIGVVNRSQLDINNKKSVTDSIRDEYAFLQKKYPSLANRNGTKYLARTLNRLLMHHIRDCLPELKTRINVLAAQYQSLLNSYGEPVDDKSATLLQLITKFATEYCNTIEGTAKYIETSELCGGARICYIFHETFGRTLESVDPLGGLNTIDILTAIRNATGPRPALFVPEVSFELLVKRQIKRLEEPSLRCVELVHEEMQRIIQHCSNYSTQELLRFPKLHDAIVEVVTCLLRKRLPVTNEMVHNLVAIELAYINTKHPDFADACGLMNNNIEEQRRNRLARELPSAVSRDKVASGGGGVGDGVQEPTTGNWRGMLKTSKAEELLAEEKSKPIPIMPASPQKGHAVNLLDVPVPVARKLSAREQRDCEVIERLIKSYFLIVRKNIQDSVPKAVMHFLVNHVKDTLQSELVGQLYKSSLLDDLLTESEDMAQRRKEAADMLKALQGASQIIAEI
notes: Dynamin-related protein 1 (Drp1), human, isoform 3 (699 aa residues), with the last six residues R694-W699 removed; also called ΔCT6 Drp1; DCT6 Drp1
B2: human dynamin-related protein 1 (Drp1) isoform 3, wild type, N-terminally His6-tagged (enzyme, UniProt O00429-4 1-699, looked up)
chain: MEALIPVINKLQDVFNTVGADIIQLPQIVVVGTQSSGKSSVLESLVGRDLLPRGTGIVTRRPLILQLVHVSQEDKRKTTGEENGVEAEEWGKFLHTKNKLYTDFDEIRQEIENETERISGNNKGVSPEPIHLKIFSPNVVNLTLVDLPGMTKVPVGDQPKDIELQIRELILRFISNPNSIILAVTAANTDMATSEALKISREVDPDGRRTLAVITKLDLMDAGTDAMDVLMGRVIPVKLGIIGVVNRSQLDINNKKSVTDSIRDEYAFLQKKYPSLANRNGTKYLARTLNRLLMHHIRDCLPELKTRINVLAAQYQSLLNSYGEPVDDKSATLLQLITKFATEYCNTIEGTAKYIETSELCGGARICYIFHETFGRTLESVDPLGGLNTIDILTAIRNATGPRPALFVPEVSFELLVKRQIKRLEEPSLRCVELVHEEMQRIIQHCSNYSTQELLRFPKLHDAIVEVVTCLLRKRLPVTNEMVHNLVAIELAYINTKHPDFADACGLMNNNIEEQRRNRLARELPSAVSRDKVASGGGGVGDGVQEPTTGNWRGMLKTSKAEELLAEEKSKPIPIMPASPQKGHAVNLLDVPVPVARKLSAREQRDCEVIERLIKSYFLIVRKNIQDSVPKAVMHFLVNHVKDTLQSELVGQLYKSSLLDDLLTESEDMAQRRKEAADMLKALQGASQIIAEIRETHLW
notes: Dynamin-related protein 1 (Drp1), human, isoform 3, 699 aa residues; the last six residues R694-W699 (RETHLW) are the CT-SLiM; also called WT Drp1; WT; not shown: His6 (36 aa-residue N-terminal tag), N-terminal, kept

Key:
[1] = molecular target: B2; assay: negative-stain EM; Drp1 (1.5 uM) pre-incubated with GIPC-1 (6 uM) for 15 min at room temperature, then CL-containing liposomes (50 uM total lipid) for 15 min; equimolar and 1:4 ratios; conditions: both partners purified
[2] = molecular target: B1; assay: negative-stain EM; 2-D class averages; apo Drp1 (2 uM) with GIPC-1 (8 uM), 1:4 molar ratio; conditions: both partners purified
[3] = molecular target: the molecule itself; assay: SEC-MALS; full-length GIPC-1, unliganded, 10 uM at injection; Superdex 200 10/300 GL column; dimer to monomers
[4] = molecular target: the molecule itself; assay: SEC-MALS; nucleotide-free apo state in solution; Superose 6 10/300 GL column; 5 uM protein at injection (Fig. 1E), other injection concentrations in Fig. S2C
[5] = molecular target: the molecule itself; assay: negative-stain EM; 2-D class averages of single particles; Drp1 at 2 uM, apo state and with 1 mM GTP

| binding result [1] | binding result [2] | Binder | stoichiometry N [3] | stoichiometry N [4] | stoichiometry N [5] |
| --- | --- | --- | --- | --- | --- |
| binds | binds | mouse GIPC-1 (GAIP interacting protein, C-terminus 1), full length (natural protein, UniProt Q9Z0G0 1-333, looked up, N-terminal IDR, GH1, PDZ and GH2 domains; GST removed after purification by HRV3C proteolysis; also called full-length GIPC-1; source: subcloned in pGEX-6P1, expressed and purified using standard protocols; aggregates removed by centrifugation and/or gel filtration; not shown: GST, N-terminal, cleaved) MPLGLGRRKKAPPLVENEEAEPSRSGLGVGEPGPLGGSAAGESQMGLPPPPAALRPRLVFHTQLAHGSPTGRIEGFTNVKELYGKIAEAFRLPAAEVMFCTLNTHKVDMDKLLGGQIGLEDFIFAHVKGQRKEVEVFKSEEALGLTITDNGAGYAFIKRIKEGSVIDHIQLISVGDMIEAINGQSLLGCRHYEVARLLKELPRGRTFTLKLTEPRKAFDMISQRSAGGHPGSGPQLGTGRGTLRLRSRGPATVEDLPSAFEEKAIEKVDDLLESYMGIRDTELAATMVELGKDKRNPDELAEALDERLGDFAFPDEFVFDVWGAIGDAKVGRY | 2 |  |  |
|  |  | B1 |  | 2 and 4 |  |
|  |  | human Drp1 (isoform 3) ΔCT4, last four residues of the CT-SLiM removed (enzyme, UniProt O00429-4 1-695, looked up, Dynamin-related protein 1 (Drp1), human, isoform 3 (699 aa residues), with the last four residues removed; also called ΔCT4 Drp1; ΔCT4/6) MEALIPVINKLQDVFNTVGADIIQLPQIVVVGTQSSGKSSVLESLVGRDLLPRGTGIVTRRPLILQLVHVSQEDKRKTTGEENGVEAEEWGKFLHTKNKLYTDFDEIRQEIENETERISGNNKGVSPEPIHLKIFSPNVVNLTLVDLPGMTKVPVGDQPKDIELQIRELILRFISNPNSIILAVTAANTDMATSEALKISREVDPDGRRTLAVITKLDLMDAGTDAMDVLMGRVIPVKLGIIGVVNRSQLDINNKKSVTDSIRDEYAFLQKKYPSLANRNGTKYLARTLNRLLMHHIRDCLPELKTRINVLAAQYQSLLNSYGEPVDDKSATLLQLITKFATEYCNTIEGTAKYIETSELCGGARICYIFHETFGRTLESVDPLGGLNTIDILTAIRNATGPRPALFVPEVSFELLVKRQIKRLEEPSLRCVELVHEEMQRIIQHCSNYSTQELLRFPKLHDAIVEVVTCLLRKRLPVTNEMVHNLVAIELAYINTKHPDFADACGLMNNNIEEQRRNRLARELPSAVSRDKVASGGGGVGDGVQEPTTGNWRGMLKTSKAEELLAEEKSKPIPIMPASPQKGHAVNLLDVPVPVARKLSAREQRDCEVIERLIKSYFLIVRKNIQDSVPKAVMHFLVNHVKDTLQSELVGQLYKSSLLDDLLTESEDMAQRRKEAADMLKALQGASQIIAEIRE |  | 2 and 4 |  |
|  |  | B2 |  | 4 | 2 |
